Test results taken from paper PMC3583217, “Novel HER2 Aptamer Selectively Delivers Cytotoxic Drug to HER2-positive Breast Cancer Cells in Vitro”.

Molecular target: HER2 extracellular domain (ECD) (UniProt P04626 23-652)
Test: flow cytometry on protein-coated beads; random-library background subtracted; Hanks buffer (SELEX binding buffer with 0.1 mg/mL salmon sperm DNA and 1 mg/mL BSA), 37 C, 30 min; pH not stated; aptamer pool heated 95 C 5 min then iced in SELEX
Settings: protein: commercial; tags: covalently coupled to magnetic beads; label: FITC (5' via primer P1 in SELEX)

B1: HB5 (ssDNA)
DNA: AACCGCCCAAATCCCTAAGAGTCTGCACTTGTCATTTTGTATATGTATTTGGTTTTTGGCTCTCACAGACACACTACACACGCACA
**Q.** Which Kd does the source give for B1 here?
**A.** Its Kd is 316 nM.
